# According to patent publication US20250163130A1, “LIGAND GATED ION CHANNELS AND METHODS OF USE” (Trames Bio, Inc., priority 2022, published 2025):
# Experiments:
# CODA1237 = biological target: T1, CODA1237 (Homo sapiens, UniProt P36544, F159M/H163T/I152M/R155K/V154L/W156N/Y151P); assay: Anion reporter (YFP quench) plate assay, ligand response of cells expressing CODA1237 compared with CODA71; type: cell-based; details: FIG. 1, various ligand doses
# T1 construct: expressed in transfected cells; host or cells: Lenti-X 293T (LX293T, Clontech) stably expressing mutant YFP (H148Q/I152L) reporter
# T1 sequence (P36544 with tags, fused parts or gaps Y151P/I152M/V154L/R155K/W156N/F159M/H163T): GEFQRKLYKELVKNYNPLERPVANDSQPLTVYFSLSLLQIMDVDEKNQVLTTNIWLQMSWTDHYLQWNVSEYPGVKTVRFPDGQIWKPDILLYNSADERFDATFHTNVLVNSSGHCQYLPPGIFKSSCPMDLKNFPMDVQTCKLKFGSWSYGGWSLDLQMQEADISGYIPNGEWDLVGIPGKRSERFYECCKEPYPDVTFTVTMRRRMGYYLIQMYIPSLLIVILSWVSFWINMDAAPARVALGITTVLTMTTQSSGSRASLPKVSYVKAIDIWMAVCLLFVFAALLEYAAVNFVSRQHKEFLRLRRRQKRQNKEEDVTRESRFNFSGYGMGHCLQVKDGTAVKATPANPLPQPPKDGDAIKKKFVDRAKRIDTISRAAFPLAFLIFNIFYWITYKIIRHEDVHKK
# [1] = test system: rat model of neuropathic pain; assay: Spared nerve injury (SNI) rat model of neuropathic pain, mechanical withdrawal threshold; type: in vivo; details: SNI rats injected with AAV.hSYN encoding engineered receptor; repeat IP injection on the third day
# Protocol: The engineered receptors disclosed herein are assessed for their ability to provide analgesia in a rat model of neuropathic pain following administration of a small molecule ligand. AAV expression cassettes containing a human synapsin-1 (hSYN) promoter linked to polynucleotides encoding either a wild type α7-nAChR, or any one of the engineered chimeric receptors disclosed herein are constructed using standard molecular biology techniques.
# Behavioral experiments and pain models: To produce mechanical hypersensitivity in a model that mimics a neuropathic pain condition, the spared nerve injury (SNI) model (a validated model of mechanical allodynia) is used (Shields et al., 2003, The Journal of Pain, 4, 465-470). This model is produced by the sectioning of the common peroneal and the sural nerves and isolating the tibial branch. Mechanical withdrawal threshold is assessed by placing rats on an elevated wire-mesh grid and stimulating the plantar surface of the hind paw with von Frey filaments.
# Effects of administration: This SNI model is produced by the sectioning of the common peroneal and the sural nerves and isolating the tibial branch of the rat. […] The duration that the rat spends on the rotarod is recorded, with a cut-off at 300 sec. […]
# HEK cells [2] = assay: Peak current measurement by manual patch clamp in HEK cells; type: cell-based; details: held at −60 mV
# Protocol: Cell culture: HEK 293 cells were routinely subcultured in DMEM with 10% fetal bovine serum (ThermoFisher Scientific). Cells were plated in six-well dishes 24 hours prior to transfection with Fugene 6 (Promega, E2691) and plasmid DNA (total of 1 μg DNA). 24 hours post transfection, cells were replated onto 10 mm PDL and collagen coated coverslips, before being used for patch clamp experiments 24-48 hours later. For dorsal root ganglion neuron experiments, adult rat lumbar ganglia were harvested and dissociated according to standard protocols, cultured on glass coverslips coated with poly-L-lysine and mouse laminin, transduced on DIV1 with ires-GFP-containing lentiviral or AAV6 vectors, and processed for immunocytochemistry on DIV7. For hippocampal neuron experiments, hippocampi were harvested from embryonic day 18 rat pups or postnatal day 0 mouse pups and dissociated according to standard protocols. […]
# Whole-cell patch clamp recording protocol: Cells plated on coverslips were visualized at 10× and 40× on an inverted fluorescence microscope (Olympus). […] Traces were either analyzed in Clampfit (Molecular Devices) or using custom Python code. […]
# Dose-response experiments: Drug-induced currents were recorded in voltage clamp mode. […]
# HEK cells [3] = assay: TC-5619 / acetylcholine dose response and peak current of engineered receptors in HEK cells (FIGS. 5C-5F); type: cell-based; details: for Response to TC-5619 (dose response), compared with CODA71: FIGS. 5C-5E
# HEK cells [4] = assay: Peak current measurement on IonFlux in HEK cells; type: cell-based; details: held at −60 mV
# Protocol: HEK 293 cells were routinely subcultured in DMEM with 10% fetal bovine serum (ThermoFisher Scientific). Cells were plated in 15 cm dishes 24 hours prior to transfection with Fugene 6 (Promega, E2691) and plasmid DNA (total of 20 μg DNA). 24 hours post transfection, cells were lifted with Accutase (Sigma, A6964) then resuspended in serum free media (CHO—S-SFM II, ThermoFisher Scientific 12052 with 25 mM HEPES, ThermoFisher Scientific, 15630080) to rest for 30-90 min before being loaded onto IonFlux (Fluxion Biosciences) for experiments. Recordings were made in extracellular solution (ECS) containing (in mM): 140 sodium chloride (S7653), 4 potassium chloride (P9333), 1 magnesium chloride (M2670), 2 calcium chloride (C3881), 10 HEPES (54457), and 10 D-(+)-glucose (G7528) (pH=7.3 with sodium hydroxide, osmolarity=305-315 mOsm). Intracellular solution (ICS) contains (in mM): 140 cesium chloride (289329), 5 potassium fluoride (60238), 2 Calcium chloride (P9333), 2 magnesium chloride (M2670), 10 HEPES (54457), and 10 EGTA (3777) (pH=7.2 with cesium hydroxide, osmolarity=290-295 mOsm).
# Drug-induced currents were recorded in ensemble mode (20 cells are patched per recording channel). Cells were held at −60 mV and current across the membrane was recorded at 1 kHz sampling rate. Drugs tested include acetycholine chloride (A6625) and other synthetic compounds. […]
Molecule,Responsiveness (percent quench of YFP fluorescence) of cells expressing CODA1237 compared with cells expressing CODA71 (CODA1237),Mechanical withdrawal thresholds (up-down method) after IP injection of ligand [1],Peak Current on Manual Patch Clamp in HEK cells (HEK cells [2]),"Peak current when activated by TC-5619, compared with CODA1055 (HEK cells [3]; FIG. 5F)","Response to TC-5619 (dose response), compared with CODA71 (HEK cells [3])",Peak Current on IonFlux in HEK Cells (HEK cells [4]),"Response to acetylcholine (dose response), compared with CODA71 (HEK cells [3]; FIGS. 5C-5D)"
c1cnc2c(c1)C[C@@]1(CN3CCC1CC3)O2 [AZD-0328],more responsive,recovery to non-injury baseline thresholds,–,–,–,–,–
"CODA1316: α7-nAChR(Gly-cys) LBD: GlyRα2 IPD, SEQ ID NO: 65 comprising R101W, Y115E, Y210W, T225I mutations (protein, CHRNA7 (Cys-loop)/GLRA2) MRCSPGGVWLALAASLLHVSLQGEFQRKLYKELVKNYNPLERPVANDSQPLTVYFSLSLLQIMDVDEKNQVLTTNIWLQMSWTDHYLQWNVSEYPGVKTVWFPDGQIWKPDILLENSADERFDATFHTNVLVNSSGHCQYLPPGIFKSSCPMDLKNFPMDVQTCKLKFGSWSYGGWSLDLQMQEADISGYIPNGEWDLVGIPGKRSERFWECCKEPYPDVTFTVIMRRRMGYYLIQMYIPSLLIVILSWVSFWINMDAAPARVALGITTVLTMTTQSSGSRASLPKVSYVKAIDIWMAVCLLFVFAALLEYAAVNFVSRQHKEFLRLRRRQKRQNKEEDVTRESRFNFSGYGMGHCLQVKDGTAVKATPANPLPQPPKDGDAIKKKFVDRAKRIDTISRAAFPLAFLIFNIFYWITYKIIRHEDVHKK",–,–,−2779 picoamps (pA),increased peak current,increased response,−5520.5 picoamps (pA),–
"CODA1055: α7-nAChR(Gly-cys) LBD: GlyRα1 IPD, SEQ ID NO: 33 comprising R101W, Y115E, Y210W mutations (protein, synthetic sequence of chimeric LGIC) MRCSPGGVWLALAASLLHVSLQGEFQRKLYKELVKNYNPLERPVANDSQPLTVYFSLSLLQIMDVDEKNQVLTTNIWLQMSWTDHYLQWNVSEYPGVKTVWFPDGQIWKPDILLENSADERFDATFHTNVLVNSSGHCQYLPPGIFKSSCPMDLKNFPMDVQTCKLKFGSWSYGGWSLDLQMQEADISGYIPNGEWDLVGIPGKRSERFWECCKEPYPDVTFTVTMRRRMGYYLIQMYIPSLLIVILSWISFWINMDAAPARVGLGITTVLTMTTQSSGSRASLPKVSYVKAIDIWMAVCLLFVFSALLEYAAVNFVSRQHKELLRFRRKRRHHKSPMLNLFQEDEAGEGRFNFSAYGMGPACLQAKDGISVKGANNSNTTNPPPAPSKSPEEMRKLFIQRAKKIDKISRIGFPMAFLIFNMFYWIIYKIVRREDVHNQ",–,–,−2176.6 picoamps (pA),–,increased response,−5074.3 picoamps (pA),reduced response
